Laboratory results taken from publication PMC2719869, “A Mouse Model for the Metabolic Effects of the Human Fat Mass and Obesity Associated FTO Gene” (PLoS Genetics, 2009).

B1: wild-type murine FTO (fat mass and obesity associated protein), full length (enzyme, mouse, UniProt Q8BGW1 1-502, looked up)
chain: MKRVQTAEEREREAKKLRLLEELEDTWLPYLTPKDDEFYQQWQLKYPKLVFREAGSIPEELHKEVPEAFLTLHKHGCLFRDVVRIQGKDVLTPVSRILIGDPGCTYKYLNTRLFTVPWPVKGCTVKYTEAEIAAACQTFLKLNDYLQVETIQALEELAVREKANEDAVPLCMAEFPRAGVGPSCDDEVDLKSRAAYNVTLLNFMDPQKMPYLKEEPYFGMGKMAVSWHHDENLVDRSAVAVYSYSCEGSEDESEDESSFEGRDPDTWHVGFKISWDIETPGLTIPLHQGDCYFMLDDLNATHQHCVLAGSQPRFSSTHRVAECSTGTLDYILERCQLALQNVLNDSDDGDVSLKSFDPAVLKQGEEIHNEVEFEWLRQFWFQGNRYKLCTDWWCEPMTHLEGLWKKMESMTNAVLREVKREGLPVEQRSEILSAILVPLTVRQNLRKEWHARCQSRVVRTLPVQQKPDCRPYWEKDDPSMPLPFDLTDVVSELRGQLLEARS
notes: also called mFTO; wild-type mFTO; source: E. coli, soluble; prepared as previously reported for full length mFTO [8]
B2: C-terminal domain of wild-type murine FTO (residues D329-end) (domain or fragment, mouse, UniProt Q8BGW1 329-502, looked up)
chain: DYILERCQLALQNVLNDSDDGDVSLKSFDPAVLKQGEEIHNEVEFEWLRQFWFQGNRYKLCTDWWCEPMTHLEGLWKKMESMTNAVLREVKREGLPVEQRSEILSAILVPLTVRQNLRKEWHARCQSRVVRTLPVQQKPDCRPYWEKDDPSMPLPFDLTDVVSELRGQLLEARS
modifications: partial alpha-N-gluconylation of the N-terminal His-tag (+178 Da adduct, likely)
notes: FTO, mouse, C-terminal domain, residues 329-502; Further details of the construct are in Text S1; also called CmFTO; mFTO 329-502 truncation; source: E. coli, soluble; prepared as previously reported for full length mFTO [8]; not shown: His tag, N-terminal, kept

Target: the molecule itself
Assay: native MS; non-denaturing nano-electrospray MS; 10 uM protein (Q-ToF) or 15 uM protein (Synapt HDMS) sprayed from 15 mM ammonium acetate pH 7.5, cone voltage 80 V; monomer to dimer

Protein	stoichiometry N
B1	2
B2	2
